Read-outs that look alike come from different tables or passages of the source.
Legend:
[1] = molecular target: T1, Eis_Mtb (Mycobacterium tuberculosis, UniProt P9WFK7); assay: dead-end inhibition kinetics, DTNB acetyltransferase assay, purified enzyme; type: biochemical
T1 construct: gene eis

[2] = tested on: CCC(=O)SCCNC(=O)CCNC(=O)[C@H](O)C(C)(C)COP(=O)(O)OP(=O)(O)OC[C@H]1O[C@@H](n2cnc3c(N)ncnc32)[C@H](O)[C@@H]1OP(=O)(O)O; assay: purified protein
[3] = tested on: NCCc1c[nH]cn1; assay: purified protein
[4] = tested on: CC(=O)SCCNC(=O)CCNC(=O)[C@H](O)C(C)(C)COP(=O)(O)OP(=O)(O)OC[C@H]1O[C@@H](n2cnc3c(N)ncnc32)[C@H](O)[C@@H]1OP(=O)(O)O; assay: purified protein; settings: acetyl-CoA binding first followed by histamine (ordered sequential mechanism)
[5] = acetyl-CoA binds after acetyl-CoA to form a precatalytic ternary complex

T1 sequence (P9WFK7 2-402): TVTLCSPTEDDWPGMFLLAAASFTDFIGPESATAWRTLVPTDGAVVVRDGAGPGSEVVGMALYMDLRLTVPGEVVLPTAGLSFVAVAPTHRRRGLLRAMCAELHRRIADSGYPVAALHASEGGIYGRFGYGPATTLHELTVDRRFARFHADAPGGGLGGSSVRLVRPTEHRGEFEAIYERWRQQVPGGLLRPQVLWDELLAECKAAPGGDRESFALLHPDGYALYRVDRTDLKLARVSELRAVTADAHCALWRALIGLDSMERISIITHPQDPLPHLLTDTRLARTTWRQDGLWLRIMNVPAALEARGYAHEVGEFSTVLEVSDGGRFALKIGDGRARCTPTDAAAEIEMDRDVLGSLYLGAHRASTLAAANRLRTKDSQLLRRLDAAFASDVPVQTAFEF

## CCCCCCCC/C=C\CCCCCCCC(=O)SCCNC(=O)CCNC(=O)[C@H](O)C(C)(C)COP(=O)(O)OP(=O)(O)OC[C@H]1O[C@@H](n2cnc3c(N)ncnc32)[C@H](O)[C@@H]1OP(=O)(O)O [oleoyl-CoA]
[1]
  Ki: 0.268 ± 0.0684 µM

## OCCc1ccc(O)cc1 [tyrosol]
[1]; read-out: Ki
  Ki: 175 ± 48.7 µM

## Eis_Msm (Mycolicibacterium smegmatis MC2 155)
[2]
  Km: 98 ± 23 µM

## Eis_Mtb (Mycobacterium tuberculosis H37Rv)
[2]
  Km: 47 ± 10 µM
  kcat: 0.6 ± 0.1 s⁻¹
  kcat/Km: 14000 ± 4000 M⁻¹ s⁻¹
[3]
  Km: (28 ± 5.2) × 10^2 μM
[3]; [5]
  kcat: 0.5 ± 0.04 s⁻¹
  kcat/Km: 170 ± 83 M⁻¹ s⁻¹
[4]
  Km: (1.2 ± 0.27) × 10^2 μM
  kcat: 5.6 ± 0.2 s⁻¹
  kcat/Km: 52000 ± 13000 M⁻¹ s⁻¹

— publication PMC5799202, “Eis, a novel family of arylalkylamine N-acetyltransferase (EC 2.3.1.87)” (Scientific Reports, 2018)
